Experiment: soluble on expression in E. coli; label from the status in PepcDB or PDB records

| Sequence | soluble on expression in E. coli |
| --- | --- |
| MSYYHHHHHHDYDIPTTENLYFQGAMDPEFRVINLAYDDNGTGDPVVFIAGRGGAGRTWHPHQVPAFLAAGYRCITFDNRGIGATENAEGFTTQTMVADTAALIETLDIAPARVVGVSMGAFIAQELMVVAPELVSSAVLMATRGRLDRARQFFNKAEAELYDSGVQLPPTYDARARLLENFSRKTLNDDVAVGDWIAMFSMWPIKSTPGLRCQLDCAPQTNRLPAYRNIAAPVLVIGFADDVVTPPYLGREVADALPNGRYLQIPDAGHLGFFERPEAVNTAMLKFFASVKA | soluble |
| MTAAPGTSMATPHVAGIAALLLQAHPSWTPDKVKTALIETADIVKPDEIADIAYGAGRVNAYKAINYDNYAKLVFTGYVANKGSQTHQFVISGASFVTATLYWDNANSDLDLYLYDPNGNQVDYSYTAYYGFEKVGYYNPTDGTWTIKVVSYSGSANYQVDVVSDGSLSQPGSSPSPQPEPTVDAKTFQGSVHLEHHHHHH | not soluble |
| MTADKLVFFVNGRKVVEKNADPETTLLAYLRRKLGLSGTKLGCGEGGCGACTVMLSKYDRLQNKIVHFSANACLAPICSLHHVAVTTVEGIGSTKTRLHPVQERIAKSHGSQCGFCTPGIVMSMYTLLRNQPEPTMEEIENAFQGNLCRCTGYRPILQGFRTFARDGGCCGGDGNNPNCCMNQKKDHSVSLSPSLFKPEEFTPLDPTQEPIFPPELLRLKDTPRKQLRFEGERVTWIQASTLKELLDLKAQHPDAKLVVGNTEIGIEMKFKNMLFPMIVCPAWIPELNSVEHGPDGISFGAACPLSIVEKTLVDAVAKLPAQKTEVFRGVLEQLRWFAGKQVKSVASVGGNIITASPISDLNPVFMASGAKLTLVSRGTRRTVQMDHTFFPGYRKTLLSPEEILLSIEIPYSREGEYFSAFKQASRREDDIAKVTSGMRVLFKPGTTEVQELALCYGGMANRTISALKTTQRQLSKLWKEELLQDVCAGLAEELHLPPDAPGGMVDFRCTLTLSFFFKFYLTVLQKLGQENLEDKCGKLDPTFASATLLFQKDPPADVQLFQEVPKGQSEEDMVGRPLPHLAADMQASGEAVYCDDIPRYENELSLRLVTSTRAHAKIKSIDTSEAKKVPGFVCFISADDVPGSNITGICNDETVFAKDKVTCVGHIIGAVVADTPEHTQRAAQGVKITYEELPAIITIEDAIKNNSFYGPELKIEKGDLKKGFSEADNVVSGEIYIGGQEHFYLETHCTIAVPKGEAGEMELFVSTQNTMKTQSFVAKMLGVPANRIVVRVKRMGGGFGGKVTRSTVVSTAVALAAYKTGRPVRCMLDRDEDMLITGGRHPFLARYKVGFMKTGTVVALEVDHFSNVGNTQDLSQSIMERALFHMDNCYKIPNIRGTGRLCKTNLPSNTAFRGFGGPQGMLIAECWMSEVAVTCGMPAEEVRRKNLYKEGDLTHFNQKLEGFTLPRCWEECLASSQYHARKSEVDKFNKENCWKKRGLCIIPTKFGISFTVPFLNQAGALLHVYTDGSVLLTHGGTEMGQGLHTKMVQVASRALKIPTSKIYISETSTNTVPNTSPTAASVSADLNGQAVYAACQTILKRLEPYKKKNPSGSWEDWVTAAYMDTVSLSATGFYRTPNLGYSFETNSGNPFHYFSYGVACSEVEIDCLTGDHKNLRTDIVMDVGSSLNPAIDIGQVEGAFVQGLGLFTLEELHYSPEGSLHTRGPSTYKIPAFGSIPIEFRVSLLRDCPNKKAIYASKAVGEPPLFLAASIFFAIKDAIRAARAQHTGNNVKELFRLDSPATPEKIRNACVDKFTTLCVTGVPENCKPWSVRV | soluble |
| MTAENIVVVAVDGSEASQNAVRWAANTANKRGVPLRLAASYTMPQFLYAEGMVPPQELFDELQSETMDMIEAARVVAHEVAPDIKIGYVIAEGSPIDMLLDMSSDVTMIVMGSRGLGGLSGMVMGSVSAAVVSHADCPVVVVRSDNHVTETNKYGPVVVGVDGSDVSQRATEFAFEEAQARGAKLVAIHTWMDMQVQASLAGLAAAQQEWEIIEKEQTTLLKDRLQPLLERFPDVEVEMVITRDRPVRALEDCAHNAQLLVVGSHGRGGFRGMLLGSTSRALLQSAPCPMVVVRPNEKEN | not soluble |
| MTAESGGRDWTGADLAVVVGDYVAQLEKVLAGKPVDRAAHDRTVRFVTGKADGPISWKQGEISAVLSLIGVPILKDQPPRWAYDNALLDAVEEQLAAKPALLAAAVRPAALFTAPSAVPLIEAAPPKPMPMTQRLIQAIQRFDMGSREADDRFLKGLGIASIVAHEARRLSDRGRPDLAGAIRPARGGDPEGCDVISFGLDEIPRLIVVKTTLAGEVAPFGLSQAEYELSRAQPHAFRIRRVYDLLGEARFYRLKPPFGLEHHHHHH | not soluble |
| MTAIPASARIVLDTEIPARVPWSAIIRKGQTLRIVDSHGQQAVDTLFYAADDHGERYSGQDTLRAQGSAYVTTGTRIMSTEGRTMLRMVADSCGLHDTSAGACSCESNTVRFGHQTKYLHACRENFVLEAAKHGLSKRDIVPNLNFFMNVPLDPDGNFTVVDGVSKPGDYVEMVAEMDVLCLISNCPQVNNPCNGFFPTPIQVVIYEAGEDLEHHHHHH | soluble |
| MTALITQFWQQVETALKTANPQEKCRLVNDLYDNLLPQIQLIKLEDFPEIVPQDNIAAFPEKPLLVAPKDVPKRSFATEEGYAATLHAIAHIEFNAINLGLDAAWRFGRNAQEELGEGLAFVKDWLRVAREESTHFSLVNEHLKTLGYQYGDFEAHAGLWEMAQATAHDIWERMALVPRVLEARGLDATPVLQEKIAQRKDFAAVNILDIILRDEIGHVYIGNHWYHALSKKRGLDAMKCFTELLHKYRIVIFKGVINTDARIQAGFTQHELDWIYEVEQTLKSYIKKLEHHHHHH | soluble |
| MTANRQQYQVESVKESNLEEIVQFLIDNFAQTEAILASLKIDDDKICLKELTVMLRDLVQDSLQCSSTCVIRDVTTRQIDGIALACKTSIFDKQIDRLCAYEFREQRVRDAVEFLKYVFNKLDVMYYLNEHRLYKPVFVALVCVRKELWGRGIGTTLMNHVKSAARTDSSDGLISLCSNERGHKLMKTYCPTDFAAVRYDAFKGEHLRPPIVMRPPETFHSVYAMLSKFN | soluble |
| MTARAIIIGAPRSGSGKTSVTIGLLRAFARRGVKVRGIKTGPDYIDPGFHAFATGTPGLNLDSWAMQPDLLRHLFSQQTEDAELILIESAMGLFDGIPVAENRTGSAADLARLFRIPVLLVLDVSGQSQTAATIAHGFAHYDPDVTMGAVVLNRAGSERHRTLCTEAIEKIGLPVVGCVLRDPSLILPERHLGLVQASEHPEIDPHIDRLADAMEKSIDLDTLFSLAAPVDMPCGSVAAAIAPPGQRIALAEDAAFTFLYPHLRRHWRAAGAEIVPFSPLADEAPDESCDICWLPGGYPELFAGKLADAVGFKAGITRFAETKPVHGECGGYMVLGERLEDAEGVIHAMTGLLSHATSFATRKMNLGYRQATIAADSPLGMAGDVLRGHEFHYARVIDPGRDQPFAHMADGQGRPLGPSGGRRGFVSGTFFHAIAKGGLEHHHHHH | not soluble |
| MTARAVRGTKDLFGKELRMHQRIVATARKVLEAAGALELVTPIFEETQVFEKGVGAATDIVRKEMFTFQDRGGRSLTLRPEGTAAMVRAYLEHGMKVWPQPVRLWMAGPMFRAERPQKGRYRQFHQVNYEALGSENPILDAEAVVLLYECLKELGLRRLKVKLSSVGDPEDRARYNAYLREVLSPHREALSEDSKERLELNPMRILDSKSERDQALLKELGVRPMLDFLGEEARAHLKEVERHLERLSVPYELEPALVRGLDYYVRTAFEVHHEEIGAQSALGGGGRYDGLSELLGGPRVPGVGFAFGVERVALALEAEGFGLPEEKGPDLYLIPLTEEAVAEAFYLAEALRPRLRAEYALAPRKPAKGLEEALKRGAAFAGFLGEDELRAGEVTLKRLATGEQVRLSREEVPGYLLQALG | soluble |
| MTARPYEPPPDYPMIEQRWPTTVRNSSIHPHVSSAHPSYRSHSIDAAVNRSSSACFHSPHRPSFPSRGLQKYDYPICGVSPSRHLSYNHFYNQSAAEIEEMLRTRQFPEIAGIYGNDEQPSLRRFTRYNQSINSRAVPPPAPPNPPKMEKHMSHDTSGRGSIFSKSSKKPLFFMGNWTFRDRNKSARPSISEALREERPQSMNLSDIKPATRSKSGEVLGPRNHIHIESITEFPRNIETRVPVKIERSSMVRRKPSNMGGSTEVSITSSSPSPSSSSSTSTGEFKTTITVDDDHQPTAVMRPKKESDTRGTLNNNRYSFQSCVQLRKSCPDLDSTAMSNMEQHRVSKKRTRRAKEKMSQAAWKRKTVKEWSLDDVLLWLQSAQMDDVAGLLIGYDLRGEDLLQWNDQTLAQLGVSNPEIRKKLLDDLSKIIENGPEPAQEDIRNNHRTLFDIVKQTSYDQVLAVETPLTTRDITVTHGRLGCLQITKVNGANLPLKEHDCLLEINERAGEQFKSALMLTKLISDSNGAAIRFVVLRRKTNLVVEESQQKESSSSGISSSPQTPTE | not soluble |
| MTARTITDVITRPLPPLPLTAAASAEVLPDWAQPARRHPAAQPWPENLTRMAVGVVDSTGATGWFGPVSATVARMVFDQVAPAVIGRELAAWRAMASLAPHGRHRQGAHLRLAVSAVELAAWDLRSHATGVPVGALLAGERRERIPVYATALGIDIDHPLAPDIAAWLVDEGFWAQKWGLPGAARGETPRADAARLRRLREAAGERARIGVDVGGRWPADYARQMLPVLAEAGVCWVEEPGPISDADLARHGLARAAGEHDYEPTDQLRTLGGDIQIWQPDPTWCGGLAHTLSMVELAARLNIRSLPHGSGLAAALALAASAPAAAVPAIEYHLTLEPLRQDHQLDPLVPAAGHLDARTAAGLTSGYRFGEGDAGAAA | soluble |
| MTASLMNTGKKNPFRDTQQGEYGNGDRNDWVMQASCRNGDPDALFVRGAEQRRAAAICRQCPVMIQCRADALDNKVEFGVWGGLTERQRRAILRKNPHVDSWEQFFAQGGELLGM | not soluble |
| MTAYINQEAAAKLDEVFPLAELALKAYGPEFQGELSLLTHSENSTYLVNAFSGQRFVMRVHRAHYHSRTAIESELAWLDALADEGMEVPKAIAGRDGAKVQTIGDGHAERREVVLFHWINGYQPDQSQQESLIQGFRRLGEITAGLHIHARQWQRPHWFERRLMVGAHAAWGNWQKAPYLDKPGAAIIGKALDKVRMELNEYGNAADLFGLIHADLRLTNLLVEEEITRIIDFDDCGFSWFMHDLAAAVSFIEHSPCLNEWVGSWVNGYSTVLPLSAADHAVIPALITQRRVQLLAWTGTHQGAPQADGLGNIWVVQTIELCEKYLANTLLDCKSIS | not soluble |
| MTDGSMDIDAMLEGGLEMAKNDRSQSRQRSPARSNRSRPSRVPIQSDVD | not soluble |
| MTDILIDNTATETVRTLIRAFPLVPVSQPPEQGSYLLAEHDTVSLRLVGEKSSVIVDFASGAAQYRRTKGGGELIAKAVNHTAHPTVWDATAGLGRDSFVLASLGLAVTAFEQHPAVACLLSDGIRRALLNPETQNTAAHINLHFGNAAEQMPALVQTQGKPDIVYLDPMYPERRKSAAVKKEMTYFHRLVGEAQDEAALLHTARQTAKKRVVVKRPRLGEHLAGQDPAYQYTGKSTRFDVYLPYGTDKGLEHHHHHH | soluble |
| MTDKVIATHNGNFHADDVFSIAALKNIFPSFKLIRTRDLEVIGKADIVIDVGGEYDADAGRFDHHQRGGAGERENGIPYSSFGLIWQKYGLAICQGNQEVANSVDAGLVSTIDAIDCGHVEGVAQGISLSQTISMFNPTWQEDSHFDTCFDEAVDFASRVLTRFIASASGGINAKDIVAKAIDNAEDSRVIVLEKYTPWKRTVHALSEEALYMVYPSPSGQWRIQTVPVEPGSFEDRKPLPKQWAGLSDDALKEVTGIDDAMFCHNGLFIAGAESFESTMKMASIALQALEHHHHHH | soluble |
| MTDLEHAVESNRRAWDASADSHLRGGGWQELSLAVQETGFSCLDETLAGVLRNLDLAGKAAVQVGCNNGREVLSLYAFGVARAVGIDQSAAFLAQARQLAERSPHQPRFVEANAYELPAELNGQFDLLLITIGVLNWMPDIARFFASVSGLLKPGGQLAIYETHPFLEMLEPESERPFELRNDYFTDTPHVSREAIVYEGSGSDTGIASYWYVHPLGDILGGLLGAGLRLSHFKEYPHSNREELYDLYEDGPLAIPMCYTLVAVKA | soluble |

From the DeepSol protein solubility set
